Assay results: patent US20090286739A1 (FIBREX MEDICAL RESEARCH AND DEVELOPMENT, published 2009)
Non-standard residues stand in square brackets, D forms with d. Primed or numbered codes have the meaning given here. No end group written: not given here. Haic′ = not defined here; Acdn = not defined here

T1: vascular endothelial (VE) cadherin (human, UniProt P33151 48-784)
T1 sequence (looked up): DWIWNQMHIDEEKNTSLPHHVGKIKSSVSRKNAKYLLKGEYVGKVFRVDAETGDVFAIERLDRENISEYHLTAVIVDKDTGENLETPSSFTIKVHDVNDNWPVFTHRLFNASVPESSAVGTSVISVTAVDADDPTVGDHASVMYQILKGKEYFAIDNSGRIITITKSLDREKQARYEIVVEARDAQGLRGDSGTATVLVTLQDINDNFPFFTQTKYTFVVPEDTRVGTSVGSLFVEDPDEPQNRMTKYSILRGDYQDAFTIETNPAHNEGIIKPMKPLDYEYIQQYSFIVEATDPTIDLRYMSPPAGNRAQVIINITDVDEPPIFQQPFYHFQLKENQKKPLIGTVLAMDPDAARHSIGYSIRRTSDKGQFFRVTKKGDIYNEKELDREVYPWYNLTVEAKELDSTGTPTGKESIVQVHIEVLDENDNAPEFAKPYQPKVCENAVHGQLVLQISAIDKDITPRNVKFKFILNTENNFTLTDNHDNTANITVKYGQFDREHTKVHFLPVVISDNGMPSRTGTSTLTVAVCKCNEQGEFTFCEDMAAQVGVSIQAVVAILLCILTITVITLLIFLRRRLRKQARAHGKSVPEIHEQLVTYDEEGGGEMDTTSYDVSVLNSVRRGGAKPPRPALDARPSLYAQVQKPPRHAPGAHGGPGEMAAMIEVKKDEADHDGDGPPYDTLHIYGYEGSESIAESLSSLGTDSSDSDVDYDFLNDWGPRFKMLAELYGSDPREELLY


These binders were tested against T1, vascular endothelial (VE) cadherin (assay: cell-based or functional assay).

| Binder | Relative RhoA stimulation compared to unstimulated control |
| --- | --- |
| GHRPLDK[Haic′]ISGGGYR [Gly-His-Arg-Pro-Leu-Asp-Lys-Haic-Ile-Ser-Gly-Gly-Gly-Tyr-Arg] | 1.3 fold of unstimulated control |
| GHRPLDK[cis‑4‑Acha]ISGGGYR [Gly-His-Arg-Pro-Leu-Asp-Lys-(cis-4-Acha)-Ile-Ser-Gly-Gly-Gly-Tyr-Arg] | 1 fold of unstimulated control |
| GHRPLDK[Acdn]ISGGGYR-NH2 (reading uncertain; also: printed as Gly-His-Arg-Pro-Leu-Asp-Lys-Acdn-Ile-Ser-Gly-Gly-Gly-Tyr-Arg-NH2) [Gly-His-Arg-Pro-Leu-Asp-Lys-Acdn-Ile-Ser-Gly-Gly-Gly-Tyr-Arg] | 1.3 fold of unstimulated control |
| GHRPLDK[(1S,2R)Achc]ISGGGYR (not fully specified; printed as Gly-His-Arg-Pro-Leu-Asp-Lys-(1S,2R)Achc-Ile-Ser-Gly-Gly-Gly-Tyr-Arg) [Gly-His-Arg-Pro-Leu-Asp-Lys-(1S,2R)Achc-Ile-Ser-Gly-Gly-Gly-Tyr-Arg] | 1.5 fold of unstimulated control |
